Assay results as given in FireProtDB (doi:10.1021/bi702473g).
Values joined by “and” are separate entries in the source; they are usually repeats but may differ in a detail not shown here. Equal entries are not always repeated.

B1: Azurin, P00282 (parent)
chain: MLRKLAAVSLLSLLSAPLLAAECSVDIQGNDQMQFNTNAITVDKSCKQFTVNLSHPGNLPKNVMGHNWVLSTAADMQGVVTDGMASGLDKDYLKPDDSRVIAHTKLIGSGEKDSVTFDVSKLKEGEQYMFFCTFPGHSALMKGTLTLK

Variants of: B1
Settings: Pseudomonas aeruginosa (strain ATCC 15692 / DSM 22644 / CIP 104116 / JCM 14847 / LMG 12228 / 1C / PRS 101 / PAO1); pH 7.5; 20 °C; GdnHCl; Fluorescence; Tris 30 mM; reversible: Yes; structure 5AZU; whole UniProt chain shown

Q: Which results are given for MLRKLAAVSLLSLLSAPLLAAECSVDIQGNDQMQFNTNAITVDKSCKQFTVNLSHPGNLPKNVMGHNWVLSTAADMQGVVTDGMASGLDKDYLKPDDSRVIAHTKLIGSGEKDSVTFDVSKLKEGEQYMFFSTFPGHSALMKGTLTLK [C132S]?
A: ddG of mutation (higher = less stable): -1.57 kcal/mol and -2.09 kcal/mol and -0.96 kcal/mol; denaturant m value: 5.21 kcal/mol/M and 5.82 kcal/mol/M and 4.73 kcal/mol/M; denaturant midpoint (higher = more stable): 2.09 M and 1.85 M and 2.17 M; unfolding free energy: 10.9 kcal/mol and 11.4 kcal/mol and 10.3 kcal/mol

Same assay, conditions: Pseudomonas aeruginosa (strain ATCC 15692 / DSM 22644 / CIP 104116 / JCM 14847 / LMG 12228 / 1C / PRS 101 / PAO1); pH 7.5; -15 °C; GdnHCl; Fluorescence; Tris 30 mM; NaCl 5.0 M; reversible: Yes; structure 5AZU; whole UniProt chain shown

Q: Which results are given for MLRKLAAVSLLSLLSAPLLAAECSVDIQGNDQMQFNTNAITVDKSCKQFTVNLSHPGNLPKNVMGHNWVLSTAADMQGVVTDGMASGLDKDYLKPDDSRVIAHTKLIGSGEKDSVTFDVSKLKEGEQYMFFSTFPGHSALMKGTLTLK [C132S]?
A: denaturant m value: 6.69 kcal/mol/M and 6.81 kcal/mol/M and 5.02 kcal/mol/M; denaturant midpoint (higher = more stable): 1.35 M and 1.38 M and 1.4 M; unfolding free energy: 9.05 kcal/mol and 9.4 kcal/mol and 7.01 kcal/mol
